{"source": "patent US20090004190A1", "about": "“Rage Fusion Proteins And Methods Of Use” (priority 2006, published 2009)", "origin": "cited, not measured here", "key": {"[1]": {"details": "assessed by retention of immunoreactivity sRAGE"}}, "data": [{"substance": "human sRAGE: human soluble RAGE (SEQ ID NO: 4)", "values": [{"measurement": "half-life in plasma", "result": "about 2 hours"}, {"measurement": "half-life", "setting": "[1]", "result": "less than 2 hours"}]}]}
